Data from US20170002346A1.

Biological target: V5 epitope tagged Sag1p fragment fusion displayed on the cell surface of Pichia pastoris (vectors without insert, s1-V5-SAG1 constructs) (S. cerevisiae) (UniProt P20840)
Test: flow cytometry, FITC anti-V5 staining of plate-grown SuperMan5 cells with GAP and UP promoter constructs (5 isolates each)

Sequence of UniProt P20840 (P20840 331-650): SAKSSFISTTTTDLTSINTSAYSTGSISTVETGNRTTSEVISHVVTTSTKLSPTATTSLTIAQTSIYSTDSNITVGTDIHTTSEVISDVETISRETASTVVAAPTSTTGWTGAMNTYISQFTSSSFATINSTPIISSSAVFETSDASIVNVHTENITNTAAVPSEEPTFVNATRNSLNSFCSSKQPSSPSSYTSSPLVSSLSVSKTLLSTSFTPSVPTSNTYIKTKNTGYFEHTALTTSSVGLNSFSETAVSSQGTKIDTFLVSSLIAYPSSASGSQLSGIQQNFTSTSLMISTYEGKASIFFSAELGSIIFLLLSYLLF

FITC-labeled anti-V5 (Abcam, V5-tag-antibody-FITC-ab1209)
FITC signal against unlabeled cells (orders of magnitude): 2
